Test results: publication PMC3469102, “^64Cu-NODAGA-c(RGDyK) Is a Promising New Angiogenesis PET Tracer: Correlation between Tumor Uptake and Integrin α V β 3 Expression in Human Neuroendocrine Tumor Xenografts” (International Journal of Molecular Imaging, 2012)
Where two headings read alike, the source gives them in different places.

How the values were obtained:
in vitro = in vitro ADME, nude mice; conditions: nude, mouse, plasma
Protocol: The product (Figure 1) was used without further purification. HPLC analysis was performed with a Jupiter column, 4u Proteo 90A, 250 × 4.6 mm (Phenomenex, Torrance, CA, USA) and flow 1.5 mL/min. The HPLC mobile phase was solvent A, 0.1% trifluoroacetic acid in water, and solvent B, 0.1% trifluoroacetic acid in acetonitrile. Gradient: 0–2 min 15% B, 2–7 min 15–40% B, and 7–10 min 40–15% B. […] Plasma was mixed with equal amounts of acetonitrile after incubation. The resulting mixture was centrifugated and the supernatant was collected and filtered.

[1] = Biodistribution (gamma counting) in mice with H727 xenografts; conditions: female, NMRI nude, mouse, in vivo, iv, 2 MBq, total radioactivity
Protocol: (§1) Female NMRI (Naval Medical Research Institute) nude mice (6 weeks upon arrival) were acquired from Taconic Europe, Lille Skensved, Denmark. The mice were acclimated one week in the animal facilities before taken into experiments. […] […] Hypnorm^R (Janssen Pharmaceutica NV, Beerse, Belgium)/Dormicum^R (Roche, Basel, Switzerland). Tumors were then grown for 3-4 weeks (average tumor volume 210 mm^3). Animal care and experimental procedures were performed under the approval of the Danish Animal Welfare Council (2006/561-1124). Tumor bearing mice were anesthetized with 3% sevoflurane (Abbott Scandinavia AB, Solna, Sweden) mixed with 35% O2 in N2. […] Mice were sacrificed by neck drawing and tumors, organs (liver, kidneys, lung, spleen, heart, intestine, and muscle) and blood were collected, weighted, and radioactivity measured in a gamma counter (2480 Wizard^2, Perkin Elmer, MA, USA). Tumors were immediately placed in tubes containing RNAlater^R (Ambion Inc., TX, USA), stored overnight at 4°C, RNAlater^R then removed, and tumors stored at -80°C until total RNA extraction and further QPCR experiments were performed. […] (0.97 ± 0.03, 0.64 ± 0.04, 0.65 ± 0.04, and 0.62 ± 0.04) and decreasing further at 18 h p.i.

[2] = tested on: human neuroendocrine tumor xenografts (H727); assay: as above; conditions: female, NMRI nude, mouse, in vivo, iv, 2 MBq, 18 h
Protocol: as §1

[3] = parameters: species or system mice; conditions: mouse, in vivo
Protocol: Dose Assessment/EXponential Modeling software (OLINDA/EXM; Vanderbilt University, Nashville, TN, USA). To ensure a conservative estimate, the urinary elimination fraction was set to 75% with voiding intervals of 5 hours. The effective dose for both adult male and female were then calculated using OLINDA/EXM.

in vivo = conditions: nude, mouse, iv, 1.6 MBq, total radioactivity
Protocol: A longitudinal dynamic study was performed scanning a mouse at 1, 2, and 18 hours after intravenous injection of 1.6 MBq ^64Cu-NODAGA-c(RGDyK), allowing dynamic information of the tracer biodistribution in tumors as well as in the other organs of interest. The PET scans were performed using a small animal PET scanner (MicroPET Focus 120, Siemens Medical Solutions, Knoxville, TN, USA). The energy window for the emission PET scans was set to 350–650 keV and the time resolution was 6 ns. Scan time was 10 min.
The acquired data for emission scan was stored in list-mode format and postprocessed to obtain 2 bytes 128 × 144 × 32 sinograms. Finally, the emission sinograms were reconstructed using MAP Algorithms and resulted into 4-byte 256 × 256 × 95 image sets with a zoom factor of 1.443 and a voxel size of 0.87 × 0.87 × 0.79 mm^3. Furthermore, the emission sinograms were corrected for dead time and decay time. Scatter and attenuation corrections were not applied to the emission data. The system was calibrated to provide activity concentrations as Bq/cc.
The small animal CT scans of the mouse parallel with the PET scans were acquired using a small animal computed tomography (microCAT II, Siemens Medical Solutions). The acquisition time of each CT scan was 6.5 minutes generating 360 projections at 360° arc. The X-ray source settings were 75 kVp, 500 μA, and 270 ms for the voltage, the current, and the exposure time, respectively. The CT projections on the 3,000 × 2,970 CCD crystal were binned by 4 to increase sensitivity and reduce the dataset size. The projections were reconstructed by real-time reconstruction algorithm (the COBRA toolbox) using Shepp-Logan filter into 768 × 768 × 512 matrix with a voxel size of 0.092 × 0.092 × 0.092 mm^3.
The fusion of the PET and CT images was performed manually using the ASIPro Toolbox (Siemens Medical Solutions). Also the analyses of PET images were performed in the ASIPro toolbox.
The measurement of the activity uptake in the tumors and the organs were estimated by manually outlining on CT images. […] The 3D ROIs of the organs were then applied on the corresponding PET images. The results of these ROIs acquired the concentration of the tracer in the organs expressed in percentage of the injected dose per gram tissue (%ID/g).

U87MG xenograft tumors = conditions: in vivo; cited from earlier work
Protocol: The cyclic RGD peptides c(RGDfK) and […] have frequently been used for radiolabeling. c(RGDfK), cyclo [Arg-Gly-Asp-D-Phe-Lys] only differs from c(RGDyK), cyclo [Arg-Gly-Asp-D-Tyr-Lys], in one amino acid, D-Phenylalanine (D-Phe) instead of D-tyrosine (D-Tyr). D-Tyr is more hydrophilic than D-Phe and c(RGDyK) has therefore been reported as preferable due to faster renal excretion. In our study we found a faster decrease of radioactivity in kidneys, intestine, and liver from 1 to 18 h (2.2 to 0.5, 1.6 to 0.4, and 1.1 to 0.4%ID/g) than that reported for ^64Cu-NODAGA-c(RGDfK) in the sam ... || NODAGA-c(RGDy/fK) has been labeled with ^68Ga and NODAGA-c(RGDfK) also with ^64Cu. One paper compared ^68Ga- and ^64Cu-NODAGA-c(RGDfK) and found the highest tracer uptake using ^68Ga-NODAGA-c(RGDfK) compared to ^64Cu-NODAGA-c(RGDfK) (5.2 versus 3.8%ID/g, 1 h p.i. in highly angiogenic U87MG xenograft tumors) but also 3 times higher tumor-to-blood ratio [12]. We found similar T/B ratio (12.7) after 1 hour using ^64Cu-NODAGA-c(RGDyK) as they did with ^64Cu-NODAGA-c(RGDfK). The advantage of ^64Cu labeling is the possibility of delayed imaging up to 12 or 18 h post ...

Molecule N=C(N)NCCC[C@@H]1NC(=O)[C@H](CCCCNC(=O)CCC(C(=O)O)N2CCN(CC(=O)O)CCN(CC(=O)O)CC2)NC(=O)[C@@H](Cc2ccc(O)cc2)NC(=O)[C@H](CC(=O)O)NC(=O)CNC1=O (stereo partly drawn) [^64Cu-NODAGA-c(RGDyK), metal not drawn] has a remaining at 24 h, 20 MBq/mL (in vitro) of 88%, a tissue uptake at 1 h ([1]; %ID/g intestines) of 1.6 ± 0.16 %ID/g and a tissue uptake at 2 h ([1]; %ID/g intestines) of 0.64 ± 0.04 %ID/g. The tissue uptake at 18 h ([1]; %ID/g intestines) was 0.43 ± 0.04 %ID/g, the tissue uptake at 1 h ([1]; %ID/g kidneys) was 2.2 ± 0.11 %ID/g and the tissue uptake at 2 h ([1]; %ID/g kidneys) was 0.97 ± 0.03 %ID/g. The tissue uptake at 18 h ([1]; %ID/g kidneys) was 0.51 ± 0.02 %ID/g, the tissue uptake at 1 h ([1]; %ID/g liver) was 1.05 ± 0.17 %ID/g and the tissue uptake at 2 h ([1]; %ID/g liver) was 0.65 ± 0.04 %ID/g. The tissue uptake at 18 h ([1]; %ID/g liver) was 0.43 ± 0.02 %ID/g, the tissue uptake at 1 h ([1]; %ID/g spleen) was 0.94 ± 0.11 %ID/g and the tissue uptake at 2 h ([1]; %ID/g spleen) was 0.62 ± 0.04 %ID/g. It also gave a tissue uptake at 18 h ([1]; %ID/g spleen) of 0.33 ± 0.02 %ID/g, a tissue uptake at 2 h ([1]; Mean %ID/g for H727 tumors) of 0.68 ± 0.06 %ID/g and a tissue uptake at 18 h ([1]; Mean %ID/g for H727 tumors) of 0.63 ± 0.04 %ID/g. It also gave a tissue to tissue ratio at 1 h ([1]; Tumor-to-blood ratio) of 12.7, a tissue to tissue ratio at 2 h ([1]; Tumor-to-blood ratio) of 37.2 and a tissue to tissue ratio at 18 h ([1]; Tumor-to-blood ratio) of 20.2. The tissue to tissue ratio at 1 h ([1]; Tumor-to-intestine ratio) was 0.72 ± 0.08, the tissue to tissue ratio at 2 h ([1]; Tumor-to-intestine ratio) was 1.06 ± 0.11 and the tissue to tissue ratio at 18 h ([1]; Tumor-to-intestine ratio) was 1.53 ± 0.11. For the same molecule, the tissue to tissue ratio at 1 h ([1]; Tumor-to-liver ratio) was 1.08 ± 0.11, the tissue to tissue ratio at 2 h ([1]; Tumor-to-liver ratio) was 1.03 ± 0.11 and the tissue to tissue ratio at 18 h ([1]; Tumor-to-liver ratio) was 1.54 ± 0.1. For the same molecule, the tissue to tissue ratio ([1]; Tumor-to-muscle ratio) was 6.5 ± 0.7, the tissue to tissue ratio at 1 h ([1]; Tumor-to-muscle ratio) was 4.99 ± 0.59 and the tissue to tissue ratio at 2 h ([1]; Tumor-to-muscle ratio) was 7.34 ± 1.16. It also gave a tissue to tissue ratio at 18 h ([1]; Tumor-to-muscle ratio) of 7.09 ± 0.52, a tissue to tissue ratio at 1 h ([1]; 1 h p.i., biodistribution, H727 xenograft mice, read-out: Tumor-to-kidney ratio) of 0.51 ± 0.05 and a tissue uptake at 1 h ([1]; 1 h p.i., i.v. 2.0 ± 0.7 MBq, gamma counter, mean ± SEM, read-out: Mean %ID/g for H727 tumors) of 1.15 ± 0.13 %ID/g. The tissue to tissue ratio at 18 h ([1]; 18 h p.i., biodistribution, H727 xenograft mice, read-out: Tumor-to-kidney ratio) was 1.2 ± 0.09, the “%ID/g intestines” value [2] was 0.4 %ID/g and the “%ID/g kidneys” value [2] was 0.5 %ID/g. The “%ID/g liver” value [2] was 0.4 %ID/g, the “Residence time, Heart” value [3] was 3.54E − 03 Bq ∗ h/Bq and the “Residence time, Kidneys” value [3] was 2.10E − 01 Bq ∗ h/Bq. For the same molecule, the “Residence time, Liver” value [3] was 3.00E − 01 Bq ∗ h/Bq, the “Residence time, Lungs” value [3] was 1.29E − 02 Bq ∗ h/Bq and the “Residence time, Small intestine” value [3] was 2.79E − 01 Bq ∗ h/Bq. The “Residence time, Spleen” value [3] was 1.20E − 02 Bq ∗ h/Bq, the tissue to tissue ratio (in vivo) was 6.9 ± 0.8 and the tissue uptake at 1 h (in vivo) was 1.15 %ID/g. It also gave a tissue uptake at 2 h (in vivo) of 0.99 %ID/g and a tissue uptake at 18 h (in vivo) of 0.76 %ID/g.
In the case of ^68Ga-NODAGA-c(RGDfK) (head to tail), the “tumor-to-blood ratio, times higher than ^64Cu-NODAGA-c(RGDfK)” value (U87MG xenograft tumors) is listed as 3 times.
